First the molecules themselves.
B1: WRI1 (At3 g54320), yeast two-hybrid construct (other, Arabidopsis thaliana, UniProt Q6X5Y6 1-430, looked up)
chain: MKKRLTTSTCSSSPSSSVSSSTTTSSPIQSEAPRPKRAKRAKKSSPSGDKSHNPTSPASTRRSSIYRGVTRHRWTGRFEAHLWDKSSWNSIQNKKGKQVYLGAYDSEEAAAHTYDLAALKYWGPDTILNFPAETYTKELEEMQRVTKEEYLASLRRQSSGFSRGVSKYRGVARHHHNGRWEARIGRVFGNKYLYLGTYNTQEEAAAAYDMAAIEYRGANAVTNFDISNYIDRLKKKGVFPFPVNQANHQEGILVEAKQEVETREAKEEPREEVKQQYVEEPPQEEEEKEEEKAEQQEAEIVGYSEEAAVVNCCIDSSTIMEMDRCGDNNELAWNFCMMDTGFSPFLTDQNLANENPIEYPELFNELAFEDNIDFMFDDGKHECLNLENLDCCVVGRESPPSSSSPLSCLSTDSASSTTTTTTSVSCNYLV
notes: Yeast two-hybrid fusion (bait pBTM116-D9 against BPM1 as prey; both bait and prey in the self-assembly test); also called WRINKLED1

Test in all cases: yeast two-hybrid
The target of data set [1] is T1, BPM4 (At3 g03740), yeast two-hybrid construct (Arabidopsis thaliana, UniProt Q9SRV1 1-465, limits assumed).
T1 construct: Yeast two-hybrid fusion
T1 sequence (looked up): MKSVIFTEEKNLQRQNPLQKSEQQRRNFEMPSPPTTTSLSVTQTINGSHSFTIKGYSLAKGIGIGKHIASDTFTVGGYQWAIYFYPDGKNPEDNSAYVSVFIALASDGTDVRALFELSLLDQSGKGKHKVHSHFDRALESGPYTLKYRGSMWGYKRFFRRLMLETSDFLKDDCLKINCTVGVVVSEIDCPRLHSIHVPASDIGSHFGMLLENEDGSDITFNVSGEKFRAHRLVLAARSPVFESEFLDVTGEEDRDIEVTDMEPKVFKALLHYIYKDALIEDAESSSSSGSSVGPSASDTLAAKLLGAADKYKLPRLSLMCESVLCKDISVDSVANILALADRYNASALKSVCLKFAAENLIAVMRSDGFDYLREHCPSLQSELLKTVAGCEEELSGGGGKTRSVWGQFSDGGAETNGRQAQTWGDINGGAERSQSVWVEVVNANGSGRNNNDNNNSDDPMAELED
Description: (§1) If not otherwise stated in this and subsequent FIGS. 30 μg of total protein extract were loaded as input, and experiments were done with 14-days old seedlings.
(§2) SDII selection medium supplemented with uracil and His was used as a transformation control, while for interaction studies, SDIV minimal medium was chosen without uracil and His supplements. Photos were taken from single spots 7 days after plating. […] Extraction and washing buffers contained at all times 1 mM PMSF (Sigma-Aldrich) and 10 μM MG132 (Sigma-Aldrich) to prevent proteolytic and proteasomal activities, respectively. […] In general, proteins were incubated at least 1.5 h at 4° C. under shaking conditions before being centrifuged.

The data set “yeast two-hybrid” deals with the molecule itself.
Description: as §1, §2
Data set [2] has as its target B1.
Description: as §1, §2

As for B1, the binding result (in data set [1]; in “yeast two-hybrid”) was “binds” throughout.

B2: BPM3 (At2 g39760), yeast two-hybrid construct (other)
chain: MSTVGGIEQLIPDSVSTSFIETVNGSHQFTIQGYSLAKGMSPGKFIQSDIFSVGGYDWAIYFYPDGKNPEDQSSYISLFIALASDSNDIRALFELTLMDQSGKGKHKVHSHFDRALEGGPYTLKYKGSMWGYKRFFKRSALETSDYLKDDCLVINCTVGVVRARLEGPKQYGIVLPLSNMGQGLKDLLDSEVGCDIAFQVGDETYKAHKLILAARSPVFRAQFFGPIGNNNVDRIVIDDIEPSIFKAMLSFIYTDVLPNVHEITGSTSASSFTNMIQHLLAAADLYDLARLKILCEVLLCEKLDVDNVATTLALAEQHQFLQLKAFCLEFVASPANLGAVMKSEGFKHLKQSCPTLLSELLNTVAAADKSSTSGQSNKKRSASSVLGCDTTNVRQLRRRTRKEVRAVS
notes: Yeast two-hybrid fusion (pACT2 or pBTM116-D9)
B2: in data set [2], the binding result was “binds”.

B3: BPM1 (At5 g19000), yeast two-hybrid construct (other, Arabidopsis thaliana, UniProt Q8L765 1-407, looked up)
chain: MGTTRVCSEVSSGSSKSLSQSLTVSTSTTETVNGFHEFKICGYSLAKGVGVGKYVASDTFMVGGYSWAIYFYPDGKSPEDNSSYVSLFIALASEGADVRALFELTLVDQSGNGKHKVHSHFGRALDSGPYTLKYRGSMWGYKRFFRRSSLESSDYLKENSLLVRCRVGVVKSVTEGPRYYNIPVPVSNLGQQLGNLLESGKGCDVVFQVDGETFNAHKLVLATRSPVFNAQLFGPLGDRNTKCITIEDMEAPIFKVLLHFIYWDELPDMQELIGTDSTLASTLVAQHLLAAADRYALERLKAICESKLCEGVAINTVATTLALAEQHHCLQLKAVCLKFVALPENLKAVMQTDGFDYLKESCPSLLTELLQYVARLSEHSVIVSGHRKEIFADGCDASGRRVKPRLH
notes: also called BTB/POZ-MATH protein 1
Consider B3, for which, in data set [2], the binding result is “binds”.

B4: BPM5 (At5 g21010), yeast two-hybrid construct (other, Arabidopsis thaliana, UniProt Q1EBV6 1-410, looked up)
chain: MSESVIQGSNPDRVLSPTSSKSVTQTVNGSHQFVIQGYSLAKGMGIGKHIASDNFSVGGYQWGIFFYPDGKNPEDNSSYVSVFIALASEGTEVRALFELALVDQSGKGKHKVHSHFERSLDGGPYTLKYRGSMWGYKRFFRRSILETSDYLKDDCLIINCTVGVVVSEILCPQLHSVHVPDSELGSHFGVLLDSMEGSDITFNIAGEKFLAHKLVLAARSPFFKSKFFSEFEANNTEVTINDLEPKVFKALLQFMYKDSLPEDVEPATAHTFERLKLSEIYETLIVKVLAAADKYDLIRLRLLCESHICKGVSVKSVAKILALADRYNAKELKGVCLKFTAENLAAVLETDAYQQMKDECVTLQSELLKAVAGHEEGSNSTGGAKSQSVWAQLSDGGGDTTSRHVRQRTT
notes: Yeast two-hybrid fusion
In the case of B4, the binding result in data set [2] is recorded as “binds”.

Values taken from patent US20180010140A1 (WASHINGTON STATE UNIVERSITY, published 2018).
